Assay results reported in paper doi:10.1101/2025.06.26.661714.

Target: biotin-conjugated Aβ_(1-40)
Assay: ELISA

EC50: 3.5 nM
B1: solanezumab-Im7 wild-type (solanezumab Fab conjugated to Immunity protein 7) (Fab, V domains shown)
VH: EVQLVESGGGLVQPGGSLRLSCAASGFTFSRYSMSWVRQAPGKGLELVAQINSVGSSTYYPDTVKGRFTISRDNAKNTLYLQMNSLRAEDTAVYYCASGDYWGQGTLVTVSS
VL: DVVMTQSPLSLPVTLGQPASISCRSSQSLIYSDGNAYLHWFLQKPGQSPRLLIYKVSNRFSGVPDRFSGSGSGTDFTLKISRVEAEDVGVYYCSQSTHVPWTFGQGTKVEIK
